The values that follow come from US20190092852A1.

The target of test [1] is cyno IL-33 (cell-based blocking assay of Example 2) (cynomolgus monkey).
For test [2], the target named is human IL-33 (cell-based blocking assay of Example 2) (human) (UniProt O95760).
Test [3] addresses human IL-33 N-His (human).
Test [4] concerns the target T1, human IL-33 (R&D Systems, #3625-IL-010/CF) (human) (UniProt O95760).
T1 sequence (looked up): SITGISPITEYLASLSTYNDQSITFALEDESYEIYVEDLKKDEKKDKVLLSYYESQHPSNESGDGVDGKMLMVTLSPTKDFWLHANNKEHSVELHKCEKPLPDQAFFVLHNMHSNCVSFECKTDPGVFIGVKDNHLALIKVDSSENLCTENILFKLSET

For test [5], the target named is T1, human IL-33 (R&D Systems, #3625-IL-010/CF) (human). This is another data set of the same source.
Test [6] shares this target. This is another data set of the same source.
For test [7] the target is unchanged. The source holds these as a separate data set.
Test [8] addresses cynomolgus monkey N-terminal 6-His-tagged and C-terminal Avi-tagged IL-33 (S112-T270) (cynomolgus monkey). Kind of test: cell-based or functional assay.
Test [9] concerns the target T1, human IL-33 (R&D Systems, #3625-IL-010/CF) (human). As to the kind of experiment: cell-based or functional assay.
The target of test [10] is human ST2L on HEK-BLUE IL-33/IL-1beta cells (human) (UniProt Q01638).
Sequence of human ST2L on HEK-BLUE IL-33/IL-1beta cells (human) (Q01638 19-556 limits assumed): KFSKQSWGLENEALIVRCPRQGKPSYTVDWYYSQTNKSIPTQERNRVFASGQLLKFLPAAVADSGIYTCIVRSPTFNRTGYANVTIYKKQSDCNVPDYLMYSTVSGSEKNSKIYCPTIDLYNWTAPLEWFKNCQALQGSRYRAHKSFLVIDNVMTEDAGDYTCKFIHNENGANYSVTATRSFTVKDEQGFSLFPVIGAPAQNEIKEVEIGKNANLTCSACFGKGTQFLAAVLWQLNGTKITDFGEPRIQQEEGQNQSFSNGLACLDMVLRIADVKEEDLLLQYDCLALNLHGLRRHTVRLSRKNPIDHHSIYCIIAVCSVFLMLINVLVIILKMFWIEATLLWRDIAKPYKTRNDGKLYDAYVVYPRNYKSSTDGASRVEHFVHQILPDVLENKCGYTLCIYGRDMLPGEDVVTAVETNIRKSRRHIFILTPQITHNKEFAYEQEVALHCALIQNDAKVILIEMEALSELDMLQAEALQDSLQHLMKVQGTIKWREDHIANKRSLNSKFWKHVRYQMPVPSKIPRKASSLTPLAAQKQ

Sequence of cyno IL-33 (cell-based blocking assay of Example 2) (cynomolgus monkey) (chain, as listed by the source): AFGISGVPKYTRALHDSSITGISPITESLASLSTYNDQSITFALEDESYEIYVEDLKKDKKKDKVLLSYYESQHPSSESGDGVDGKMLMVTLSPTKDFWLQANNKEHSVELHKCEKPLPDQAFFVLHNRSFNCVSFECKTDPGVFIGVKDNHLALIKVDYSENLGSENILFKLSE
Sequence of cynomolgus monkey N-terminal 6-His-tagged and C-terminal Avi-tagged IL-33 (S112-T270) (cynomolgus monkey) (chain, as listed by the source limits assumed): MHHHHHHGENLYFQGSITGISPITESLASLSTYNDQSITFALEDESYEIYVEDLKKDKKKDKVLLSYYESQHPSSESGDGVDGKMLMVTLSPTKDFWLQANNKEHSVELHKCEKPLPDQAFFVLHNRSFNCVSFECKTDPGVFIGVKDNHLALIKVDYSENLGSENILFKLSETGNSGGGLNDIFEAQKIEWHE

In [1], “sST2-LZ (sST2 (M1-F328) C-terminal leucine zipper (LZ)-Flag-His) (receptor)” came in with an IC50 (HEK-BLUE SEAP reporter, IL-33 blocking) of 1.8 pM and an IC90 (HEK-BLUE SEAP reporter, IL-33 blocking) of 3.6 pM. Moreover, in test [2], the IC50 (HEK-BLUE SEAP reporter, IL-33 blocking) stood at 12.2 pM and the IC90 (HEK-BLUE SEAP reporter, IL-33 blocking) was determined as 46.7 pM. In test [3], this substance displayed an IC50; SEAP reporter, HEK-BLUE IL-33 cells, 15 pM human IL-33 N-His, 20 h of 62.1 pM and an IC90; SEAP reporter, HEK-BLUE IL-33 cells, 15 pM human IL-33 N-His, 20 h of 257 pM. For the same substance, the IC50, IL-33-induced phospho-p38 in primary human basophils, 500 pM hIL-33 in [4] worked out at 7.9e-13 M. The IC50 (read off the curve) in test [5] amounted to 0.8 pM. The Ph-p38 MFI at 0.4 nM sST2 (500 pM human IL-33, primary basophils) in test [6] is 113 MFI. Moreover, the Ph-p38 MFI at 2 nM sST2 (500 pM human IL-33, primary basophils) in test [7] worked out at 40 MFI. In test [8], the HEK-BLUE SEAP reporter IC50 stood at 30 pM. Also, in [9], the HEK-BLUE SEAP reporter IC50 came to 27 pM and the IFN-γ secretion from primary NK cells, IC50 came to 150 pM.
Regarding human IL-33 N-His (ligand), the EC50 (SEAP reporter OD 620, HEK-BLUE IL-33/IL-1beta cells) in test [10] worked out at 6 pM.
In test [3], control IgG4 antibody registered an IC50 as printed in the table (fit value of a flat curve: Control IgG4 stays at about 115-125 % IL-33 activity up to 1e4 pM, no inhibition); SEAP reporter, HEK-BLUE IL-33 cells, 15 pM human IL-33 N-His of 7.63e-06 pM and an IC90 as printed in the table (fit value of a flat curve: Control IgG4 stays at about 115-125 % IL-33 activity up to 1e4 pM, no inhibition); SEAP reporter, HEK-BLUE IL-33 cells, 15 pM human IL-33 N-His of 1.08e-06 pM. In addition, in [6], the Ph-p38 MFI at 0.4 nM Ab (500 pM human IL-33, primary basophils) stood at 152 MFI. Besides, the Ph-p38 MFI at 2 nM Ab (500 pM human IL-33, primary basophils) in test [7] came to 110 MFI.
